Reference: paper PMC5364666, “Human MFAP1 is a cryptic ortholog of the Saccharomyces cerevisiae Spp381 splicing factor” (BMC Evolutionary Biology, 2017)

T1: S. cerevisiae Spp381 (pre-mRNA-splicing factor suppressor of prp38-1), full-length wild type (S. cerevisiae, UniProt P38282 1-291)
T1 construct: Spp381, S. cerevisiae, UniProt P38282, ORF amplified from genomic DNA; also called scSpp381; scSpp381^FL; source: E. coli Rosetta 2 (DE3) or BL21 (DE3) RIL, purified (Ni-NTA, TEV cleavage, SEC); not shown: His6, N-terminal, cleaved
T1 sequence (looked up): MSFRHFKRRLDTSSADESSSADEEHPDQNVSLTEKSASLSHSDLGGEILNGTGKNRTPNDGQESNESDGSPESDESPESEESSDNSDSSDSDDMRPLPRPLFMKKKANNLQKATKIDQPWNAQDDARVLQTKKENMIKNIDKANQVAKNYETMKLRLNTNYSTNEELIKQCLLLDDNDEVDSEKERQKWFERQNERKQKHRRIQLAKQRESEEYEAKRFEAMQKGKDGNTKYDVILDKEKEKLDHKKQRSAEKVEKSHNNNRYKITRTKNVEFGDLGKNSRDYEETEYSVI

B1: S. cerevisiae Prp38 (pre-mRNA processing factor 38 domain containing protein), full-length wild type (natural protein, UniProt Q00723 1-242, looked up)
chain: MAVNEFQVESNISPKQLNNQSVSLVIPRLTRDKIHNSMYYKVNLSNESLRGNTMVELLKVMIGAFGTIKGQNGHLHMMVLGGIEFKCILMKLIEIRPNFQQLNFLLNVKNENGFDSKYIIALLLVYARLQYYYLNGNNKNDDDENDLIKLFKVQLYKYSQHYFKLKSFPLQVDCFAHSYNEELCIIHIDELVDWLATQDHIWGIPLGKCQWNKIYNSDEESSSSESESNGDSEDDNDTSSES
notes: Prp38, S. cerevisiae, ORF amplified from genomic DNA; also called scPrp38; source: E. coli Rosetta 2 (DE3) or BL21 (DE3) RIL, purified (Ni-NTA, TEV cleavage, SEC); not shown: His6, N-terminal, cleaved
B2: S. cerevisiae Snu23 (23 kDa small nuclear ribonucleoprotein component) residues 116-169 (domain or fragment, UniProt Q12368 116-169, looked up)
chain: LIIDIRDNDDVPQEEFELCYHNLIKDFVEVRSMETQSKRKRLLDTDVEKAKKVA
B3: S. cerevisiae Spp381 residues 177-248 (domain or fragment, UniProt P38282 177-248, looked up)
chain: NDEVDSEKERQKWFERQNERKQKHRRIQLAKQRESEEYEAKRFEAMQKGKDGNTKYDVILDKEKEKLDHKKQ
notes: also called scSpp381^177-248; source: E. coli Rosetta 2 (DE3) or BL21 (DE3) RIL, purified (Ni-NTA, TEV cleavage, SEC); not shown: His6, N-terminal, cleaved
B4: Human MFAP1 (microfibrillar-associated protein 1) residues 267-344 (domain or fragment)
chain: not shown
notes: the minimal fragment used for crystallization of the hsPrp38-hsMFAP1 complex; source: E. coli Rosetta 2 (DE3) or BL21 (DE3) RIL, purified (Ni-NTA, TEV cleavage, SEC); not shown: His6, N-terminal, cleaved

What was measured:
Settings in all cases: both partners purified
[1] = biological target: T1, S. cerevisiae Spp381 (pre-mRNA-splicing …); experiment: SEC; analytical gel filtration of two proteins: 50 uM each, equimolar, incubated 30 min at 4 °C in SEC buffer (10 mM Tris-HCl pH 8.0, 300 mM NaCl, 0.1 mM EDTA, 1 mM DTT); Superdex 75 or Superdex 200 Increase columns at 4 °C; peak fractions by SDS-PAGE
[2] = biological target: B1; experiment: SEC; analytical gel filtration of three proteins (scSnu23 116-169, scPrp38, scSpp381 177-248) on a Superdex 75 10/300 column; fractions by SDS-PAGE
[3] = biological target: B1; experiment: SEC; analytical gel filtration of two proteins: 50 uM each, equimolar, incubated 30 min at 4 °C in SEC buffer (10 mM Tris-HCl pH 8.0, 300 mM NaCl, 0.1 mM EDTA, 1 mM DTT); Superdex 75 or Superdex 200 Increase columns at 4 °C; peak fractions by SDS-PAGE

binding result [3]	Binder	also measured
	B1	binding result [1]: binds
	B2	binding result [2]: binds
binds	B3	
binds	B4	
